B1: MXI1 peptide 6-21 (Max-interacting protein 1), 16-mer library wild type / SIN3A PAH2 (SIN3A PAH domain, residues 295-383) (parent complex)
chain 1: MINVQRLLEAAEFLER
chain 2: SLQNNQPVEFNHAINYVNKIKNRFQGQPDIYKAFLEILHTYQKEQRNAKEAGGNYTPALTEQEVYAQVARLFKNQEDLLSEFGQFLPDA

The variants in the experiment derive from B1. Put plainly: proteomic peptide phage display deep mutational scan (ProP-PD DMS): M13 P8 16-mer library selected against immobilised GST-tagged bait for four days (rounds), NGS of the eluted pools per day and pseudo-replica; bait immobilised on MaxiSorp plates (10 µg), library pre-cleared on GST, 2 h binding at 4 °C, five washes; one round per day, days 1-4; value from days 2 and 3.
For chain 1 L7Y, the screen value was 0.00109 average fractional NGS count over selection days 2 and 3 (reads of this peptide / all reads for the bait, averaged over ….

For chain 1 L7F, the screen value was 0.000853 average fractional NGS count over selection days 2 and 3 (reads of this peptide / all reads for the bait, averaged over ….

On to chain 1 L7W, for which the screen value is 0.00101 average fractional NGS count over selection days 2 and 3 (reads of this peptide / all reads for the bait, averaged over ….

Turning to chain 1 L14R, the screen value is 0.000773 average fractional NGS count over selection days 2 and 3 (reads of this peptide / all reads for the bait, averaged over ….

Consider chain 1 L14D, for which the screen value was 0.000292 average fractional NGS count over selection days 2 and 3 (reads of this peptide / all reads for the bait, averaged over ….

On to chain 1 L14W, for which the screen value is 0.000239 average fractional NGS count over selection days 2 and 3 (reads of this peptide / all reads for the bait, averaged over ….

On to chain 1 L14H, for which the screen value was 0.00159 average fractional NGS count over selection days 2 and 3 (reads of this peptide / all reads for the bait, averaged over ….

As for chain 1 L14K, the screen value was 0.000523 average fractional NGS count over selection days 2 and 3 (reads of this peptide / all reads for the bait, averaged over ….

In the case of chain 1 L14M, the screen value was 0.000829 average fractional NGS count over selection days 2 and 3 (reads of this peptide / all reads for the bait, averaged over ….

Take chain 1 L14S: the screen value was 0.00955 average fractional NGS count over selection days 2 and 3 (reads of this peptide / all reads for the bait, averaged over ….

chain 1 L14P: the screen value is 0.0014 average fractional NGS count over selection days 2 and 3 (reads of this peptide / all reads for the bait, averaged over ….

On to chain 1 L14E, for which the screen value is 0.00161 average fractional NGS count over selection days 2 and 3 (reads of this peptide / all reads for the bait, averaged over ….

Turning to chain 1 L14V, the screen value is 0.000293 average fractional NGS count over selection days 2 and 3 (reads of this peptide / all reads for the bait, averaged over ….

chain 1 L14N: the screen value is 0.0048 average fractional NGS count over selection days 2 and 3 (reads of this peptide / all reads for the bait, averaged over ….

Take chain 1 L14Y: the screen value is 0.00247 average fractional NGS count over selection days 2 and 3 (reads of this peptide / all reads for the bait, averaged over ….

chain 1 E9V: the screen value was 0.000671 average fractional NGS count over selection days 2 and 3 (reads of this peptide / all reads for the bait, averaged over ….

Turning to chain 1 E9S, the screen value was 0.0016 average fractional NGS count over selection days 2 and 3 (reads of this peptide / all reads for the bait, averaged over ….

In the case of chain 1 E9I, the screen value was 0.000125 average fractional NGS count over selection days 2 and 3 (reads of this peptide / all reads for the bait, averaged over ….

With chain 1 E9H, the screen value was 0.000122 average fractional NGS count over selection days 2 and 3 (reads of this peptide / all reads for the bait, averaged over ….

On to chain 1 E9F, for which the screen value is 0.000875 average fractional NGS count over selection days 2 and 3 (reads of this peptide / all reads for the bait, averaged over ….

For the variant chain 1 E9A, the screen value was 0.000182 average fractional NGS count over selection days 2 and 3 (reads of this peptide / all reads for the bait, averaged over ….

With chain 1 E9M, the screen value was 0.000348 average fractional NGS count over selection days 2 and 3 (reads of this peptide / all reads for the bait, averaged over ….

Consider chain 1 E9G, for which the screen value is 0.000184 average fractional NGS count over selection days 2 and 3 (reads of this peptide / all reads for the bait, averaged over ….

As for chain 1 E9Y, the screen value is 0.000223 average fractional NGS count over selection days 2 and 3 (reads of this peptide / all reads for the bait, averaged over ….

chain 1 E9N: the screen value is 0.0151 average fractional NGS count over selection days 2 and 3 (reads of this peptide / all reads for the bait, averaged over ….

chain 1 E9D: the screen value is 0.000993 average fractional NGS count over selection days 2 and 3 (reads of this peptide / all reads for the bait, averaged over ….

With chain 1 M1Y, the screen value is 0.000304 average fractional NGS count over selection days 2 and 3 (reads of this peptide / all reads for the bait, averaged over ….

Consider chain 1 M1K, for which the screen value was 0.000747 average fractional NGS count over selection days 2 and 3 (reads of this peptide / all reads for the bait, averaged over ….

As for chain 1 M1F, the screen value is 0.000314 average fractional NGS count over selection days 2 and 3 (reads of this peptide / all reads for the bait, averaged over ….

As for chain 1 M1I, the screen value is 0.000114 average fractional NGS count over selection days 2 and 3 (reads of this peptide / all reads for the bait, averaged over ….

As for chain 1 M1P, the screen value was 0.000146 average fractional NGS count over selection days 2 and 3 (reads of this peptide / all reads for the bait, averaged over ….

chain 1 M1W: the screen value is 0.00153 average fractional NGS count over selection days 2 and 3 (reads of this peptide / all reads for the bait, averaged over ….

chain 1 M1D: the screen value is 9.92e-05 average fractional NGS count over selection days 2 and 3 (reads of this peptide / all reads for the bait, averaged over ….

On to chain 1 M1V, for which the screen value is 0.000344 average fractional NGS count over selection days 2 and 3 (reads of this peptide / all reads for the bait, averaged over ….

For the variant chain 1 E15I, the screen value was 0.0148 average fractional NGS count over selection days 2 and 3 (reads of this peptide / all reads for the bait, averaged over ….

For chain 1 E15K, the screen value is 0.000258 average fractional NGS count over selection days 2 and 3 (reads of this peptide / all reads for the bait, averaged over ….

Regarding chain 1 E15H, the screen value is 0.00272 average fractional NGS count over selection days 2 and 3 (reads of this peptide / all reads for the bait, averaged over ….

In the case of chain 1 E15D, the screen value was 0.000913 average fractional NGS count over selection days 2 and 3 (reads of this peptide / all reads for the bait, averaged over ….

In the case of chain 1 E15Y, the screen value was 0.0114 average fractional NGS count over selection days 2 and 3 (reads of this peptide / all reads for the bait, averaged over ….

Take chain 1 E15N: the screen value was 0.000504 average fractional NGS count over selection days 2 and 3 (reads of this peptide / all reads for the bait, averaged over ….

Consider chain 1 E15M, for which the screen value was 8.82e-05 average fractional NGS count over selection days 2 and 3 (reads of this peptide / all reads for the bait, averaged over ….

For chain 1 E15F, the screen value is 0.000557 average fractional NGS count over selection days 2 and 3 (reads of this peptide / all reads for the bait, averaged over ….

Consider chain 1 E15R, for which the screen value is 0.000127 average fractional NGS count over selection days 2 and 3 (reads of this peptide / all reads for the bait, averaged over ….

With chain 1 E15G, the screen value was 0.00623 average fractional NGS count over selection days 2 and 3 (reads of this peptide / all reads for the bait, averaged over ….

Consider chain 1 E15S, for which the screen value was 0.0548 average fractional NGS count over selection days 2 and 3 (reads of this peptide / all reads for the bait, averaged over ….

For the variant chain 1 E15V, the screen value was 0.0659 average fractional NGS count over selection days 2 and 3 (reads of this peptide / all reads for the bait, averaged over ….

For the variant chain 1 E15Q, the screen value was 0.000842 average fractional NGS count over selection days 2 and 3 (reads of this peptide / all reads for the bait, averaged over ….

For the variant chain 1 E15L, the screen value is 0.0492 average fractional NGS count over selection days 2 and 3 (reads of this peptide / all reads for the bait, averaged over ….

As to chain 1 E15W, the screen value is 0.00827 average fractional NGS count over selection days 2 and 3 (reads of this peptide / all reads for the bait, averaged over ….

chain 1 E15T: the screen value was 0.119 average fractional NGS count over selection days 2 and 3 (reads of this peptide / all reads for the bait, averaged over ….

Turning to chain 1 E15P, the screen value was 0.000251 average fractional NGS count over selection days 2 and 3 (reads of this peptide / all reads for the bait, averaged over ….

As for chain 1 A11M, the screen value is 0.00708 average fractional NGS count over selection days 2 and 3 (reads of this peptide / all reads for the bait, averaged over ….

chain 1 A11I: the screen value was 0.000346 average fractional NGS count over selection days 2 and 3 (reads of this peptide / all reads for the bait, averaged over ….

chain 1 A11F: the screen value is 0.000474 average fractional NGS count over selection days 2 and 3 (reads of this peptide / all reads for the bait, averaged over ….

With chain 1 A11E, the screen value was 0.000155 average fractional NGS count over selection days 2 and 3 (reads of this peptide / all reads for the bait, averaged over ….

Turning to chain 1 A11Q, the screen value is 0.000778 average fractional NGS count over selection days 2 and 3 (reads of this peptide / all reads for the bait, averaged over ….

In the case of chain 1 A11L, the screen value was 0.000741 average fractional NGS count over selection days 2 and 3 (reads of this peptide / all reads for the bait, averaged over ….

As to chain 1 A11G, the screen value was 0.000249 average fractional NGS count over selection days 2 and 3 (reads of this peptide / all reads for the bait, averaged over ….

For the variant chain 1 A11W, the screen value is 0.00145 average fractional NGS count over selection days 2 and 3 (reads of this peptide / all reads for the bait, averaged over ….

In the case of chain 1 A11N, the screen value is 0.000651 average fractional NGS count over selection days 2 and 3 (reads of this peptide / all reads for the bait, averaged over ….

As to chain 1 A11H, the screen value was 0.000274 average fractional NGS count over selection days 2 and 3 (reads of this peptide / all reads for the bait, averaged over ….

As for chain 1 Q5M, the screen value is 0.000803 average fractional NGS count over selection days 2 and 3 (reads of this peptide / all reads for the bait, averaged over ….

For chain 1 Q5A, the screen value is 0.000986 average fractional NGS count over selection days 2 and 3 (reads of this peptide / all reads for the bait, averaged over ….

With chain 1 Q5S, the screen value is 0.000556 average fractional NGS count over selection days 2 and 3 (reads of this peptide / all reads for the bait, averaged over ….

Turning to chain 1 Q5N, the screen value was 0.000576 average fractional NGS count over selection days 2 and 3 (reads of this peptide / all reads for the bait, averaged over ….

Take chain 1 Q5Y: the screen value was 0.00574 average fractional NGS count over selection days 2 and 3 (reads of this peptide / all reads for the bait, averaged over ….

Consider chain 1 Q5T, for which the screen value is 0.00207 average fractional NGS count over selection days 2 and 3 (reads of this peptide / all reads for the bait, averaged over ….

For chain 1 Q5F, the screen value is 0.000275 average fractional NGS count over selection days 2 and 3 (reads of this peptide / all reads for the bait, averaged over ….

On to chain 1 Q5H, for which the screen value is 0.00355 average fractional NGS count over selection days 2 and 3 (reads of this peptide / all reads for the bait, averaged over ….

Turning to chain 1 I2N, the screen value was 0.00111 average fractional NGS count over selection days 2 and 3 (reads of this peptide / all reads for the bait, averaged over ….

With chain 1 I2F, the screen value was 0.000676 average fractional NGS count over selection days 2 and 3 (reads of this peptide / all reads for the bait, averaged over ….

For the variant chain 1 I2A, the screen value is 0.00266 average fractional NGS count over selection days 2 and 3 (reads of this peptide / all reads for the bait, averaged over ….

As for chain 1 I2H, the screen value is 0.000551 average fractional NGS count over selection days 2 and 3 (reads of this peptide / all reads for the bait, averaged over ….

Consider chain 1 I2E, for which the screen value is 0.00021 average fractional NGS count over selection days 2 and 3 (reads of this peptide / all reads for the bait, averaged over ….

With chain 1 I2Y, the screen value is 0.00134 average fractional NGS count over selection days 2 and 3 (reads of this peptide / all reads for the bait, averaged over ….

(Values after article PMC12102759 (2025).)
